Test results reported in patent US20220332804A1 (CSL INNOVATION, published 2022).

Assays:
Assay in all cases: SPR, KD relative to WT C2;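 note: biacore SPR at 37 °C, anti-C2 mAbs captured on anti-human IgG chips with alanine or serine point mutants of C2 as analyte, KD from 1:1 fit compared with wild-type C2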
human C2 G432A = biological target: T1, human C2 G432A (human, UniProt P06681 21-752)
T1 sequence: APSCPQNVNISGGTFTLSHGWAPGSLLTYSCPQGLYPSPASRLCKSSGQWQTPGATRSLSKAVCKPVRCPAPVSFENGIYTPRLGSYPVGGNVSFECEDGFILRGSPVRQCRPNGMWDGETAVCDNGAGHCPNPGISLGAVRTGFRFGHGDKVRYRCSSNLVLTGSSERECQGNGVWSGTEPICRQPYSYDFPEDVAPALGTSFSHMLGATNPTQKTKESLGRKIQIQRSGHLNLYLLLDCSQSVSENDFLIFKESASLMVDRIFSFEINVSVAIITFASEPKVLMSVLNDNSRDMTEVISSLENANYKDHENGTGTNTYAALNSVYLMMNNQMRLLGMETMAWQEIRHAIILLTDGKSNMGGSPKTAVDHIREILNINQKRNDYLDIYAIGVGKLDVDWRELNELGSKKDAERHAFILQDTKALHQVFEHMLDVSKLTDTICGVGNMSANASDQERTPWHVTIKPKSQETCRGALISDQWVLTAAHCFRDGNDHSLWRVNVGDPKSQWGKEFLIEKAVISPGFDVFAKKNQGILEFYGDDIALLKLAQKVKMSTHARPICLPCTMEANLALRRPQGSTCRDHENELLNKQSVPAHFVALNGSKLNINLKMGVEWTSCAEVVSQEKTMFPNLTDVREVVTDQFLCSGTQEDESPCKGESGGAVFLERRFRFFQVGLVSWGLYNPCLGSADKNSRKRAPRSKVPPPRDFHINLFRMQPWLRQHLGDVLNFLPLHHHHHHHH

human C2 N327A = biological target: T2, human C2 N327A (human, UniProt P06681 21-752)
T2 sequence: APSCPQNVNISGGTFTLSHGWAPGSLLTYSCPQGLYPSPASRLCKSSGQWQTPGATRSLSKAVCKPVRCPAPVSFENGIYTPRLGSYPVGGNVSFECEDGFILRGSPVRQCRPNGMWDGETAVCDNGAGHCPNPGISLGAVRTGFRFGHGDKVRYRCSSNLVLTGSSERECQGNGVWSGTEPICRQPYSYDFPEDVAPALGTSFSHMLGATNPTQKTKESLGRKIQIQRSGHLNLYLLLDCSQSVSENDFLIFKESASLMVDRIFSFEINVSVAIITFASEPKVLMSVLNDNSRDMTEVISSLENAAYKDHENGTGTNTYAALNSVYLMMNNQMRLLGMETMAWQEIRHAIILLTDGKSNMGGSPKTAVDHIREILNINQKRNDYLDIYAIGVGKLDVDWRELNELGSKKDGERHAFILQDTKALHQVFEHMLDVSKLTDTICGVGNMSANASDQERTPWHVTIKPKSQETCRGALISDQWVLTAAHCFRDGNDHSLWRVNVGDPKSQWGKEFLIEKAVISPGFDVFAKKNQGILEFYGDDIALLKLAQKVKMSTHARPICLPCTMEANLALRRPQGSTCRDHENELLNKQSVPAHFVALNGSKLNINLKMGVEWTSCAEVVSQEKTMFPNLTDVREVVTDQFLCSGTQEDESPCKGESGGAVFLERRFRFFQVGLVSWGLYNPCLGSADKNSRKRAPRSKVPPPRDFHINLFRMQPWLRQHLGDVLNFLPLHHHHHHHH

human C2 H446A = biological target: T3, human C2 H446A (human, UniProt P06681 21-752)
T3 sequence: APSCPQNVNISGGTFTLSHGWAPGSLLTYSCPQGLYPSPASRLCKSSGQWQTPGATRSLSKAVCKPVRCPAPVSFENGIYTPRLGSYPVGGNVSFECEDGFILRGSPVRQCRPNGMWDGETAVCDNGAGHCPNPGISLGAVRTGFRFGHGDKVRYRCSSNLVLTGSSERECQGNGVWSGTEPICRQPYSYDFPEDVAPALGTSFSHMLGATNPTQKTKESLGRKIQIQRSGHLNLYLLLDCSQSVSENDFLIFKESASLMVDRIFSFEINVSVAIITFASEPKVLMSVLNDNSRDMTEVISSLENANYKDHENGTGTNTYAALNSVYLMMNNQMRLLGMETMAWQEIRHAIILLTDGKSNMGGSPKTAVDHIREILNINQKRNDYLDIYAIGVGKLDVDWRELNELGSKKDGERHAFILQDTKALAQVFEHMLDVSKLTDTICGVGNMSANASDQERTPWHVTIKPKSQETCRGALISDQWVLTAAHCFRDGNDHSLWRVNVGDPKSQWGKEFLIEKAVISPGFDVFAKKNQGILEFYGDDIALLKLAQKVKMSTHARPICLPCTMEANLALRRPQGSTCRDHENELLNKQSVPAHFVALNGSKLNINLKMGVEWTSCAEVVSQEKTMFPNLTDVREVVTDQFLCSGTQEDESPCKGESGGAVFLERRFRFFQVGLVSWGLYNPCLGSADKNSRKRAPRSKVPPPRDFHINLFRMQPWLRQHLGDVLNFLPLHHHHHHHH

human C2 R688A = biological target: T4, human C2 R688A (human, UniProt P06681 21-752)
T4 sequence: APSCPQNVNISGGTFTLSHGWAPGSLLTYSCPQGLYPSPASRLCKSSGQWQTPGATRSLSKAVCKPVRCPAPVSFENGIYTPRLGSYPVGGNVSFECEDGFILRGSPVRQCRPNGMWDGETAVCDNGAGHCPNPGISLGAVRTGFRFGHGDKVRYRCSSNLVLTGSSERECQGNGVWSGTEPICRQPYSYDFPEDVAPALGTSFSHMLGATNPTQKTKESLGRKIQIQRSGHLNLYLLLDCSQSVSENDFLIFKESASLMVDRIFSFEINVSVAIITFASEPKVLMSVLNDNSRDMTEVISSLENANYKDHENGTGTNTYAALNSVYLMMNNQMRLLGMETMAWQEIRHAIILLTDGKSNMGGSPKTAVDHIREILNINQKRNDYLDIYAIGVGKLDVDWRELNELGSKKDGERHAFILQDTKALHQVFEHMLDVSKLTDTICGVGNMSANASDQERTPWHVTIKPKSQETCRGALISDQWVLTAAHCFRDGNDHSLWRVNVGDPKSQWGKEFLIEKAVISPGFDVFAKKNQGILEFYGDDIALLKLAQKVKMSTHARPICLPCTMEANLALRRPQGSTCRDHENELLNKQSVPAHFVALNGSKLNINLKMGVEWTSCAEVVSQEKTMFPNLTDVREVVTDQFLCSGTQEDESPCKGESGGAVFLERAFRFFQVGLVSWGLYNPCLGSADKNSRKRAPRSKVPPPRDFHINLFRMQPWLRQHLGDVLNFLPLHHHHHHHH

B1: RF16-242 (antibody, human IgG4 S228P, lambda, V domains shown)
VH: EVQLLQSGAEVKKPGESLKISCKGSGYSFTSYWIGWVRQMPGKGLEWMGIIYPGDSDTRYSPSFQGQVTISADKSISTAYLQWSSLKASDTAMYYCARRGHYGDYFDYWGQGTLVTVSS
VL: SYELTQPPSVSVSPGQTARITCSGDALPKKYAYWYHQKSGQAPVLVIYEDRRRPSEIPERFSGSSSGTMATLTITGAQVEDEGVYFCYSRDRAGNQRVFGGGTQLTVLG
notes: pH-dependent anti-C2 antibody from a phage display library
Human C2 G432A
  Fold diff: 1 fold
Human C2 N327A
  Fold diff: 5 fold
Human C2 H446A
  Fold diff: 2 fold
Human C2 R688A
  Fold diff: 2 fold
